Measured values: patent US5310662

Key:
[1] = tested on: hGR delta420-451 del420-451 (positions given are the non-deleted residues at the junction) (Homo sapiens); conditions: immunoprecipitation DNA binding; transcription <1
[2] = tested on: hGR G445 445G (Homo sapiens); conditions: immunoprecipitation DNA binding; transcription <1
[3] = tested on: hGR G457 457G (Homo sapiens); conditions: immunoprecipitation DNA binding; transcription <1
[4] = tested on: hGR G479 479G (Homo sapiens); conditions: immunoprecipitation DNA binding; transcription 65
[5] = tested on: hGR delta450-487 del450-487 (positions given are the non-deleted residues at the junction) (Homo sapiens); conditions: immunoprecipitation DNA binding; transcription <1
[6] = tested on: hGR G460 460G (Homo sapiens); conditions: immunoprecipitation DNA binding; transcription 55
[7] = tested on: hGR G446 446G (Homo sapiens); conditions: immunoprecipitation DNA binding; transcription 40; may be unstable in vitro
[8] = tested on: hGR G441 441G (Homo sapiens); conditions: immunoprecipitation DNA binding; transcription <1
[9] = tested on: hGR G465 465G (Homo sapiens); conditions: immunoprecipitation DNA binding; transcription 1
[10] = tested on: hGR G421 421G (Homo sapiens); conditions: immunoprecipitation DNA binding; transcription <1
[11] = tested on: hGR G424 424G (Homo sapiens); conditions: immunoprecipitation DNA binding; transcription <1
[12] = tested on: hGR G477 477G (Homo sapiens); conditions: immunoprecipitation DNA binding; transcription <1
[13] = tested on: hGR G438 438G (Homo sapiens); conditions: immunoprecipitation DNA binding; transcription <1
[14] = tested on: hGR G426 D426G (Homo sapiens); conditions: immunoprecipitation DNA binding; transcription 75
[15] = tested on: hGR G455 455G (Homo sapiens); conditions: immunoprecipitation DNA binding; transcription 80; may be unstable in vitro
[16] = tested on: hGR G462 462G (Homo sapiens); conditions: immunoprecipitation DNA binding; transcription 80
[17] = tested on: hGR G450 450G (Homo sapiens); conditions: immunoprecipitation DNA binding; transcription 60
[18] = tested on: hGR G474 474G (Homo sapiens); conditions: immunoprecipitation DNA binding; transcription 60
[19] = tested on: hGR G470 470G (Homo sapiens); conditions: immunoprecipitation DNA binding; transcription 3
[20] = tested on: hGR G476 476G (Homo sapiens); conditions: immunoprecipitation DNA binding; transcription <1
[21] = tested on: hGR-SB (human glucocorticoid receptor, wild-type-equivalent parent) (Homo sapiens); conditions: immunoprecipitation DNA binding, reference; transcription 100
[22] = tested on: hGR G433 433G (Homo sapiens); conditions: immunoprecipitation DNA binding; transcription 2
[23] = tested on: hGR G431 C431G (Homo sapiens); conditions: immunoprecipitation DNA binding; transcription 80
[24] = tested on: hGR G432 432G (Homo sapiens); conditions: immunoprecipitation DNA binding; transcription 10
[25] = tested on: hGR G444 444G (Homo sapiens); conditions: immunoprecipitation DNA binding; transcription <1
[26] = tested on: hGR G442 K442G (Homo sapiens); conditions: immunoprecipitation DNA binding; transcription <1; specificity minimally affected
[27] = tested on: hGR G486 486G (Homo sapiens); conditions: immunoprecipitation DNA binding; transcription 10; may be unstable in vitro
[28] = tested on: hGR G480 480G (Homo sapiens); conditions: immunoprecipitation DNA binding; transcription 90
[29] = tested on: hGR G453 453G (Homo sapiens); conditions: immunoprecipitation DNA binding; transcription 90
[30] = tested on: hGR G437 437G (Homo sapiens); conditions: immunoprecipitation DNA binding; transcription 20
[31] = tested on: hGR G463 463G (Homo sapiens); conditions: immunoprecipitation DNA binding; transcription <1
[32] = tested on: hGR G481 481G (Homo sapiens); conditions: immunoprecipitation DNA binding; transcription <1
[33] = tested on: hGR G447 447G (Homo sapiens); conditions: immunoprecipitation DNA binding; transcription <1
[34] = tested on: hGR G471 471G (Homo sapiens); conditions: immunoprecipitation DNA binding; transcription 10
[35] = tested on: hGR G473 473G (Homo sapiens); conditions: immunoprecipitation DNA binding; transcription <1
[36] = tested on: hGR G467 467G (Homo sapiens); conditions: immunoprecipitation DNA binding; transcription 40; may be unstable in vitro
[37] = tested on: hGR G423 423G (Homo sapiens); conditions: immunoprecipitation DNA binding; transcription <1
[38] = tested on: G-gal-G (hGR with DNA-binding domain replaced by GAL4 residues 1-74) (Homo sapiens / Saccharomyces cerevisiae); assay: cell_activity
[39] = tested on: GAL4 (Saccharomyces cerevisiae); assay: cell_activity; conditions: CAT reporter; lost on deletion of the GAL4 site

Substance: GRE-containing DNA fragment
- binding signal [1]: 1 % of hGR-SB
- binding signal [2]: < 1 % of hGR-SB
- binding signal [3]: 2 % of hGR-SB
- binding signal [4]: 40 % of hGR-SB
- binding signal [5]: 1 % of hGR-SB
- binding signal [6]: 90 % of hGR-SB
- binding signal [7]: 6 % of hGR-SB
- binding signal [8]: < 1 % of hGR-SB
- binding signal [9]: 1 % of hGR-SB
- binding signal [10]: < 1 % of hGR-SB
- binding signal [11]: 1 % of hGR-SB
- binding signal [12]: 1 % of hGR-SB
- binding signal [13]: < 1 % of hGR-SB
- binding signal [14]: 75 % of hGR-SB
- binding signal [15]: 6 % of hGR-SB
- binding signal [16]: 40 % of hGR-SB
- binding signal [17]: 50 % of hGR-SB
- binding signal [18]: 95 % of hGR-SB
- binding signal [19]: 4 % of hGR-SB
- binding signal [20]: < 1 % of hGR-SB
- binding signal [21]: 100%
- binding signal [22]: 1 % of hGR-SB
- binding signal [23]: 10 % of hGR-SB
- binding signal [24]: 30 % of hGR-SB
- binding signal [25]: 1 % of hGR-SB
- binding signal [26]: 60 % of hGR-SB
- binding signal [27]: 1 % of hGR-SB
- binding signal [28]: 50 % of hGR-SB
- binding signal [29]: 60 % of hGR-SB
- binding signal [30]: 8 % of hGR-SB
- binding signal [31]: 1 % of hGR-SB
- binding signal [32]: 3 % of hGR-SB
- binding signal [33]: 2 % of hGR-SB
- binding signal [34]: 6 % of hGR-SB
- binding signal [35]: < 1 % of hGR-SB
- binding signal [36]: 6 % of hGR-SB
- binding signal [37]: < 1 % of hGR-SB

Substance: deltaMTV-GAL-CAT promoter with synthetic GAL4 site 17MX
- activity ([38]; CAT reporter, hormone dependent): 500 fold
- activity [39]: 20 fold

Substance: deltaMTV-CAT promoter (GREs deleted, no GAL4 site)
- activity (% of deltaMTV-GAL-CAT) ([38]; possible cryptic GAL4 site): 5
